{"source": "paper PMC11401227", "about": "“The structure of DNA methyltransferase DNMT3C reveals an activity-tuning mechanism for DNA methylation” (The Journal of Biological Chemistry, 2024)", "proteins": {"B1": {"name": "mouse DNMT3C MTase domain (residues 456–740) (domain or fragment, UniProt P0DOY1 456-740, looked up)", "chain": "AAKRRPIRVLSLFDGIATGYLVLKELGIKVEKYIASEVCAESIAVGTVKHEGQIKYVDDIRNITKEHIDEWGPFDLVIGGSPCNDLSCVNPVRKGLFEGTGRLFFEFYRLLNYSCPEEEDDRPFFWMFENVVAMEVGDKRDISRFLECNPVMIDAIKVSAAHRARYFWGNLPGMNRPVMASKNDKLELQDCLEFSRTAKLKKVQTITTKSNSIRQGKNQLFPVVMNGKDDVLWCTELERIFGFPEHYTDVSNMGRGARQKLLGRSWSVPVIRHLFAPLKDHFACE", "notes": "DNA methyltransferase DNMT3C, mouse, MTase domain, residues 456-740; synthetic DNA fragment; The His6-SUMO tag was still on the chain in the Ni-NTA co-purification step and was removed by ULP1 afterwards; also called DNMT3C methyltransferase domain; WT DNMT3C; source: E. coli BL21 (DE3) RIL, co-expressed with DNMT3L, purified (Ni-NTA, Heparin, SEC); not shown: His6-SUMO, N-terminal, cleaved"}}, "molecular_target": "the molecule itself", "assay": "crystal structure; DNMT3C MTase domain-hDNMT3L C-terminal domain covalently bound to a 25-mer ZpG/CpG DNA, with SAH; 3.2 Å; crystals grown at 4 °C"}
{"protein": "B1", "values": [{"measurement": "binding result", "result": "binds"}]}
